Laboratory results as given in PMC9748371.
“And” between values parts separate entries of the source, which are not always exact repeats. Identical values can stand only once.

Molecular target: EGFR^K642G-mEGFP (UniProt P00533)
Assay: number and brightness

EGFR^K642G-mEGFP (from UniProt P00533) (receptor)
apparent brightness BE: 4.11 and 4.73 and 5.53
